This series deals with ATP. The series is described as follows: switch fluorescence ratio, 500 uM ATP over buffer (Cy3 cluster intensity, sum of 5 cycles each) (fold (ratio)); higher = stronger signal-on switching upon ATP binding; sequences stand for … in TCGTCGGCAGCGTCAGATGTGTATAAGAGACAGTTTTTTTTTTTTTTTTTTTTTTTTT…TC. To be noted: aptamer strand: ATP DNA aptamer (quencher-CACCTGGGGGAGTATTGCGGAGGAAGG + anchor), 100 nM annealed; ATP concentration: 500 uM. The gist of the method: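 Cy3-labelled switching-strand clusters on a modified Illumina MiSeq flow-cell were annealed to 100 nM quencher-labelled ATP aptamer and imaged first in selection buffer, then after 15 min with 500 uM ATP at 22 °C. NaOH stripping and re-annealing separated each of five buffer/ATP cycles, and clusters outside 100-1000 RFU were excluded. The fluorescence ratio sums target-cycle Cy3 intensity over buffer-cycle Cy3 intensity per cluster and averages it per switch-domain sequence.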

± gives the standard deviation of the averaged measurements.
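Note: ATP exposure 15 min at 22 °C before imaging.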

As for GAAGCAACCG, the switch fluorescence ratio stood at 1.384 ± 0.01. As for TAGAGGTTGG, the figure is 0.981 ± 0.042; as for TCGTTCAGTA, 0.958 ± 0.014. The figure for GTGATGAACG is 1.01 ± 0.092; for GTCACCAGAT it is 1.002 ± 0.0077. The figure for TGGGGGCACG is 1 ± 0.026; for GAGCGAGGGA it is 1.14 ± 0.052. For GACTTTTAGG, the switch fluorescence ratio was 1.01 ± 0.027. The figure for TTGGGGGTAA is 0.987 ± 0.018; for CTGTAGGGAC it is 1.18 ± 0.025; for AATTGGATGG it is 1.02 ± 0.047. On to CGGGGGGTTT, for which the switch fluorescence ratio was 1.01 ± 0.025. ATGATGGGGG: the switch fluorescence ratio came out at 0.984 ± 0.027. As for TCATGGAGGC, the figure is 1.02 ± 0.041; as for TTCAATAGGA, 1.03 ± 0.045. Turning to TCATGTGCAT, the switch fluorescence ratio is 1.129 ± 0.0048. For GTATTAATAT, the switch fluorescence ratio turned out to be 1.01 ± 0.04. As for TTGAAACAGA, the figure is 0.985 ± 0.038; as for GAGGTATCAT, 0.9847 ± 0.0073. The figure for CGTAACGGGA is 1.037 ± 0.0076. The figure for GGTGTGCTGT is 0.957 ± 0.031; for TTGTATACCT it is 1.17 ± 0.02. Turning to TAAAGTGCGA, the switch fluorescence ratio stood at 0.993 ± 0.035. On to TTTTTTGACC, for which the switch fluorescence ratio worked out at 1.02 ± 0.044. On to AAGCGGCGTA, for which the switch fluorescence ratio came out at 1.01 ± 0.042. As for GATTGTTCGT, the figure is 1.031 ± 0.0085; as for ATAATAAGCT, 1.016 ± 0.0073; as for GTTGCTATTT, 1.0045 ± 0.00071. The figure for TAGGAGTAAG is 1.01 ± 0.03. The figure for ATGTAATATA is 1.02 ± 0.06; for ATGGGCTTGC it is 0.994 ± 0.083; for CGGTTGGGGC it is 1.11 ± 0.057.

As to CCATGTCTGT, the switch fluorescence ratio amounted to 0.963 ± 0.015. In the case of GGTAAAAAAG, the switch fluorescence ratio is 1 ± 0.028. As for GGTTATAATG, the figure is 1.02 ± 0.012. Turning to ATGTGCCGTC, the switch fluorescence ratio was found to be 1.04 ± 0.048. As for GCCCTTAGCA, the figure is 1.018 ± 0.0013; as for AAGTGCGATC, 1.04 ± 0.019. The figure for GGGGTTTGGT is 0.984 ± 0.038; for CAATTGTTCC it is 1.04 ± 0.021. Consider GGGCCTAGCG, for which the switch fluorescence ratio was found to be 0.978 ± 0.019.

Consider AACGTCTGGA, for which the switch fluorescence ratio was 0.9725 ± 0.0037. The figure for GGGGATCCAT is 1.02 ± 0.026; for TAGAATATAT it is 1.78 ± 1. Turning to GGGGGTATTA, the switch fluorescence ratio worked out at 0.97014 ± 0.00019. Take AAAGGGAACC: the switch fluorescence ratio was found to be 1.017 ± 0.0037. As for ATAAAATAAT, the figure is 0.977 ± 0.048; as for TTGTACCATA, 1.1 ± 0.071. As for GGAGAGGGGA, the figure is 0.982 ± 0.014.

With TAGAAAAGGG, the switch fluorescence ratio worked out at 1.03 ± 0.031. The figure for TATACGGGGC is 1.01 ± 0.027; for TTGTAGTCGG it is 1 ± 0.053; for GCGTAGGGG it is 0.967 ± 0.028.

For ACATTGTACG, the switch fluorescence ratio was found to be 1.09 ± 0.019.

As to AGTTAAAACG, the switch fluorescence ratio is 1.02 ± 0.011. As for TATCTACAAT, the figure is 1.01 ± 0.02; as for TTTCTTCAAA, 0.997 ± 0.02.

CTGGAAAACC: the switch fluorescence ratio was found to be 1.02 ± 0.0058.

Regarding TTCGGTCGTA, the switch fluorescence ratio came to 1.01 ± 0.053. The figure for AAGTACTATC is 1.26 ± 0.025; for AGGGTAATGG it is 1.03 ± 0.021. As for GTTTTATCCT, the switch fluorescence ratio is 1.05 ± 0.011. The figure for AAATGCTTAG is 0.995 ± 0.011; for ATTAAAAATC it is 0.968 ± 0.036.

GTAATGATGG: the switch fluorescence ratio worked out at 0.994 ± 0.036. As for GTTGATTTTC, the figure is 1.017 ± 0.0079.

Values taken from the supplement of paper PMC10126150.
